Measurements published in US10444224B2, “Method for RNA detection and quantification” (Cornell University, priority 2011, dated 2019).
Values joined by “and” are separate entries in the source; they are usually repeats but may differ in a detail not shown here. Equal values may be shown once. “Also recorded” adds a separate entry of the source.

What was measured:
[1] = Bell et al. 2000; cited from earlier work
[2] = Photobleaching curves on glass slides under continuous illumination; assay type: physicochemical; details: immobilized on glass slides, 130 W mercury lamp, 45 min
Description: Photobleaching experiments were performed on fluorescein, EGFP and 24-2-DFHBI complexes immobilized on chemically functionalized glass slides (MicroSurfaces). To immobilized fluorescein, fluorescein cadaverine (Sigma-Aldrich) was reacted in 40 mM HEPES pH 8.0 with NHS-activated glass slides for 2 h at 25° C. Slides were then incubated in 100 mM Tris pH 8.0 to quench any unreacted NHS-activated sites. […] To immobilize 24-2-DFHBI, a 3′ amine modified 21-nt DNA oligo (sequence: 5′-GGTTGTAAGTTTTAGGTTGCC-NH2-3′, SEQ ID NO: 45; Integrated DNA Technologies) was reacted with NHS-activated glass slides. Unreacted NHS-activated sites were blocked as above. 24-2 RNA was then in vitro synthesized with a 5′ overhang complimentary to the immobilized DNA oligo. Purified 24-2 RNA was denatured at 65° C. and incubated with the slide at 25° C. for 20 min to allow hybridization to the immobilized oligonucleotide. […] Images were captured every 10 s with a CoolSnap HQ2 CCD camera through a 10× air objective mounted on a Nikon TE2000 microscope and analyzed with the NIS-Elements software. […] Total fluorescence was then plotted against exposure time and normalized to the maximum intensity of each fluorophore.

streptavidin = streptavidin (Streptomyces avidinii, UniProt P22629); test: Spinach-based protein sensor fluorescence activation; assay type: biochemical; details: micromolar concentrations of protein, DFHBI included
Text: Using the same strategy from Example 5-7, a streptavidin aptamer (Srisawat and Engelke, “Streptavidin Aptamers: Affinity Tags for the Study of RNAs and Ribonucleoproteins, RNA 7:632-41 (2001), which is hereby incorporated by reference in its entirety) was fused to Spinach, and the transducer domain was optimized. The resulting RNA molecule is illustrated in FIG. 16A. The sensor was separately exposed to solutions containing micromolar concentrations of streptavidin, ovalalbumin, BSA, and lysozyme. […] Thus, the approach is generalizable not just to small molecules, but also proteins.

[3] = Emission and excitation of aptamer-DFAN complex; assay type: physicochemical; details: aptamer with DFAN
[4] = Sensor activation rate, SAM sensor; assay type: biochemical; details: 1 mM SAM, 37° C.
Description: A solution of RNA sensor (1 μM) and DFHBI (10 μM) was incubated with continuous stirring at 37° C. in a buffer containing 40 mM HEPES pH 7.4, 125 mM KCl and 1 mM MgCl2. The target metabolite (1 mM) was then rapidly added to the stirring solutions and fluorescence emission was recorded over a 15 min period under continuous illumination at 37° C. using the following instrumental parameters: excitation wavelength, 460 nm; emission wavelength, 500 nm; increment of data point collection, 0.05 s; slit widths, 10 nm. The fluorescence increase was then plotted against exposure time and normalized to the maximum intensity of each fluorophore.

[5] = tested on: endogenous SAM levels in living E. coli cells; test: Live cell imaging of SAM accumulation with the SAM sensor; assay type: cell-based; set-up: average increase in SAM levels upon treatment with methionine: dose or concentration left out as unconfirmed
Description: Expression of the SAM aptamer and intracellular imaging was performed as described above for the ADP sensor: BL21-A Star E. coli cells (Invitrogen) were transformed with 40 ng of plasmid DNA expressing the tRNA-sensor chimeras in pET28c under the control of a T7 promoter. Cells were plated, grown overnight and single colonies were picked for inoculation in LB-Kan. At OD600=0.4, 1 mM of IPTG was added to the culture and shaking was continued at 37° C. for more 2 hours. 100 μL of culture was then removed, spun down to pellet the culture, and resuspended in 2 mL of pH 6.0 M9 minimal media. A 200 μl aliquot of resuspended culture was then plated on PLL-coated 24-well glass-bottom dishes (MatTek) and incubated for 45 minutes at 37° C. Adherent cells were washed twice and then incubated with 200 μM DFHBI in pH 6.0 M9 minimal media for 2 hours at 37° C. Cells were then treated with methionine alone or methionine with inhibitors by adding 2 μl of a 100× stock of the compound to a final concentration of 50 μg/ml for L-methionine, 25 μM for adenosine periodate, and 2.5 μM for MT-DADMe-ImmA. Live fluorescence images were taken with a CoolSnap HQ2 CCD camera through a 60× oil objective mounted on a Nikon TE2000 microscope and analyzed with the NIS-Elements software. The filter set used was a sputter coated filter cube with excitation filter 470/40, dichroic mirror 495 (long pass) and emission filter 525/50 (Chroma Technology).
Cells transformed with SAM sensors were grown overnight in LB-Kan. Cultures were then diluted to OD600=0.1 in 200 mL LB-Kan and grown to OD600=0.4. Cells were then induced for 2 hours with 1 mM IPTG at 37° C. with constant shaking. The entire culture was centrifuged for 5 min at 1,000×g, pellets were resuspended and washed once with M9 media and then resuspended in […] of M9 media containing 200 μM DFHBI and divided into two samples. Methionine (50 μg/ml) or vehicle was then added to either sample and cultures were incubated between 32-37° C. 25 ml aliquots were removed from methionine- and vehicle-treated sample at each time point, centrifuged for 5 min at 1,000×g, and flash frozen in liquid nitrogen. Cells were thawed on ice and lysed by resuspending the pellet in 300 μl of cold 4% perchloric acid. Insoluble material was then pelleted by spinning at 1,000×g for 5 min and the supernatant was transferred to a dialysis spin column with a 10,000 molecular weight cut off (Amicon) and spun at 10,000×g for 10 min at 4° C. A portion of the flow through (50 μl) was then injected on a Zorbax C8 column (Agilent) on an Agilent 1100 HPLC. Samples were loaded and eluted for 15 min with an aqueous buffer containing 3.6% acetonitrile, 40 mM ammonium phosphate, and 5 mM sodium 1-heptanesulfonate which was brought to pH 5.0 with hydrochloric acid. After each sample was eluted, the column was washed with a gradient of 3.6-25% acetonitrile for 30 min prior to the next samples being injected. SAM standards were used to calibrate SAM levels measured using this assay.
Population analysis was carried out using NIS-Elements software. Individual cells in a captured field were manually traced as Region of Interests (ROIs) and tracked through the different time points of image capture. Fluorescence intensity was then calculated by dividing the total fluorescence by the area for each ROI, which gives the mean intensity per unit area. Fold increase in fluorescence over time is calculated as the ratio of mean intensity at a desired time point and at time zero. Values in fold increase in fluorescence over time are plotted as frequency distributions or further used in statistical analyses.

[6] = Spinach-based RNA sensor fluorescence in response to SAM; assay type: biochemical
Description: Dose-response curves for each sensor in response to the target metabolite were determined by measuring the increase in fluorescence as a function of increasing target concentration in the presence of a fixed concentration of RNA sensor (10-50 nM) and a fixed concentration of fluorophore (10 μM). Curves were determined using a nonlinear regression analysis in Prism software and matched by least squares fitting to a standard dose-response model for 1:1 complexation.
The optimal sensors were chosen based on their low fluorescence in the absence of metabolite and the relative increase in fluorescence upon binding to the metabolite.

streptavidin, sequence (P22629 25-183, species assumed): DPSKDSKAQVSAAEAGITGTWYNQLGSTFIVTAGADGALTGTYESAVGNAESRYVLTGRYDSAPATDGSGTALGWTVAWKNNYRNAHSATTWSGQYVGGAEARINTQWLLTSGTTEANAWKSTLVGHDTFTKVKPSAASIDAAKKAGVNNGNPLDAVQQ

For `CC1=NC(=Cc2ccc(O)cc2)C(=O)N1C` [HBI, 4-(4-hydroxybenzylidene)-1,2-dimethyl-imidazol-5-one], the pKa [1] is given as 8.1.

B1: Spinach: first generation derivative of 24-2, DFHBI-binding RNA aptamer (nucleic acid)
chain 1: GACGCGACUGAAUGAAAUGGUGAAGGACGGGUCCAGGUGUGGCUGCUUCGGCAGUGCAGCUUGUUGAGUAGAGUGUGAGCUCCGUAACUAGUCGCGUC
chain 2: GACGCAACUGAAUGAAAUGGUGAAGGACGGGUCCAGGUGUGGCUGCUUCGGCAGUGCAGCUUGUUGAGUAGAGUGUGAGCUCCGUAACUAGUCGCGUC
modifications: listed as RNA, chemistry not given here
For B1, the “photobleaching during continuous illumination” value [2] was “remarkable resistance to photobleaching”.

B2: Spinach-streptavidin sensor: Spinach-based streptavidin sensor RNA molecule (nucleic acid)
chain: GACGCGACUGAAUGAAAUGGUGAAGGACGGGUCCACGACCGACCAGAAUCAUGCAAGUGCGUAAGAUAGUCGCGGGCCGGGGUUGUUGAGUAGAGUGUGAGCUCCGUAACUAGUCGCGUC
modifications: listed as RNA, chemistry not given here
notes: Spinach-based streptavidin sensor RNA molecule
With B2 the “fluorescence activation by BSA, ovalbumin or lysozyme” value (streptavidin) was “fail to increase fluorescence above background levels” and the “fluorescence activation by streptavidin” value (streptavidin) was “specific fluorescence activation occurs only in solutions that contained streptavidin”.

B3: SEQ ID NO: 59: RNA aptamer listed for fluorophore DFAN (nucleic acid)
chain: GGGAGACGCAACUGAAUGAAAUACUUGGGAUGGUAAUGGCCUGGAGCUGCUUCGGCAGACCCGUGCAAGGACGUGGGAGAGGGGUCCGUAACUAGUCGCGUCAC
modifications: listed as RNA, chemistry not given here
In the case of B3, the Em [3] is reported as “Em = 550 nm” and the Ex [3] is reported as “Ex = 480 nm”.

B4: SAM sensor: Spinach-based turn-on RNA sensor for SAM, transducer stem 1 (nucleic acid)
chain: GACGCGACUGAAUGAAAUGGUGAAGGACGGGUCCACGAAAGGAUGGCGGAAACGCCAGAUGCCUUGUAACCGAAAGGGUUGUUGAGUAGAGUGUGAGCUCCGUAACUAGUCGCGUC
modifications: chemistry not given here
For B4, the “time to maximal fluorescence after SAM addition” value ([4]; 1 μM RNA sensor, 10 μM DFHBI) was no more than 10 min, the “time to increase in fluorescence after SAM addition” value [4] was “less than 10 s” and the “average increase in sensor fluorescence in methionine-treated cells” value ([5]; 50 μg/ml methionine, 3 hr) was “over 6 fold”. The “average increase in SAM levels upon treatment with methionine” value ([5]; methionine, 180 min (FIG. 9D)) was “six-fold”, the “increase in fluorescence in the presence of SAM” value ([6]; 10 μM DFHBI, 1 mM SAM, versus no SAM) was 25 fold and 24 fold and the “molecular discrimination: fluorescence with methionine or adenosine” value ([6]; 1 mM) was “negligibly fluorescent; also recorded: negligible signal above background”. The “molecular discrimination: fluorescence with SAH” value ([6]; 1 mM SAH) was “only minimal fluorescence; also recorded: negligible signal” and the EC50 ([6]; dose-response, 10 μM fluorophore, read-out: half-maximal fluorescence (EC50), SAM) was 120 µM.
